B1: Nanobody TCNB4 (VHH)
VHH: QRQLVESGGGLVQPGGSLRLSCAASGFTPGIYDIGWFRQAPGKEREGVSCISSRGSSTNYADSVKGRFIISRDNVKNTVYLQMNSLEPEDTAVYYCAAIYQPSNGCVLRPEYSYWGKGTPVTVSS
B2: Nanobody TCNB11 (VHH)
VHH: QLQLVESGGGLVQAGGSLRLSCTASGRTGTMGWFRQGPGKEREFVASHKWVAGSTYYADSVKGRFTISRDNAKNTLYLQMNSLKSEDTAVYYCAASSQIFYGATTSIKDFNSWGKGTRVTVSS
B3: Nanobody TCNB26 (VHH)
VHH: QVQLVESGGGLVQAGESLRLSCAASGRTFAMAWFRQAPGKEREFVAVRGWLGVTTYYADSVKGRFTISRDNAKNTLDLQMNSLKPEDTAVYYCAAGQYSSSLYDRETEYNYWGQGTRVTVSS
B4: Nanobody TCNB34 (VHH)
VHH: QWQLVESGGGLVQPGGSLRLSCAASGSTFSSYAMGWYRQAPGKECELVAAISRAGGSTNYADSVKGRFTISRDNAKNTVYLQMNSLKPEDTAVYYCNAAAEGETGSNWSLCEEYDYWGKGTRVTVSS

Assays:
[1] = biological target: Transcobalamin (TC), B12-bound, as in the TC:TCblR complex (human, UniProt P20062); assay: crystal structure
Chain of Transcobalamin (TC), B12-bound, as in the TC:TCblR complex (P20062 19-427, one chain of several): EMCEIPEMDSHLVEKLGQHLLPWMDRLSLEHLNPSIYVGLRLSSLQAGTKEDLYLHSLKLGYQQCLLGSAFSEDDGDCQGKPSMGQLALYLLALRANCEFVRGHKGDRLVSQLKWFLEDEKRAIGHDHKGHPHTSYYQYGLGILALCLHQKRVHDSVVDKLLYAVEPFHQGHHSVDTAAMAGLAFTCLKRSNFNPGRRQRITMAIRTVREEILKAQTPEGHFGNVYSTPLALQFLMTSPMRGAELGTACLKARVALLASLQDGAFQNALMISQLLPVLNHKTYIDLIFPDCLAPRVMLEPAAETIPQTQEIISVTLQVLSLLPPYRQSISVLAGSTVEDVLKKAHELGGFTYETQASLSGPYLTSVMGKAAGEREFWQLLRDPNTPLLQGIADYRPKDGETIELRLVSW

[2] = biological target: Transcobalamin receptor TCblR (CD320), crystallization construct, as in the TC:TCblR complex (human, UniProt Q9NPF0); assay: crystal structure
Chain of Transcobalamin receptor TCblR (CD320), crystallization construct, as in the TC:TCblR complex (Q9NPF0 53-171, one chain of several): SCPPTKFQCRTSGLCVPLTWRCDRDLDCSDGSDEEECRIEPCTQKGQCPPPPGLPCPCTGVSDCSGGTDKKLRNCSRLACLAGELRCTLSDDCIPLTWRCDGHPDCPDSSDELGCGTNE

[3] = biological target: B12-bound complex of transcobalamin (TC) and its receptor TCblR (Homo sapiens); assay: MST
Chain of B12-bound complex of transcobalamin (TC) and its receptor TCblR (Homo sapiens) (P20062 19-427 R227Q, chain 1 of 2): as the sequence (P20062 19-427, one chain of several) above, with R209Q counted along it
Chain of B12-bound complex of transcobalamin (TC) and its receptor TCblR (Homo sapiens) (Q9NPF0 53-171, chain 2 of 2, further chain): as the sequence (Q9NPF0 53-171, one chain of several) above

| Binder | binding result [1] | binding result [2] | Kd [3] |
| --- | --- | --- | --- |
| B1 | binds | binds | 5.2 nM |
| B2 | binds |  |  |
| B3 | binds |  | 87.4 nM |
| B4 | binds |  | 12.8 nM |

Reference: article doi:10.1101/2021.08.16.456495 (bioRxiv, 2021)
